{"source": "patent US20110008302A1", "about": "“Compositions and methods for immortalizing cells and screening for anti-cancer agents” (priority 2007, published 2011)", "key": {"H3K36me2 peptide": {"system": "H3K36me2 peptide", "assay": "Fluorescence coupled demethylation assay", "assay_type": "biochemical", "conditions": "for efficiency of demethylation of H3K36me2 peptide: bacterially expressed fragment", "method": "(§1) For assay of in vitro histone demethylation, cells from a confluent 15 cm dish were harvested and the cell pellet was resuspended in 5 packed cell volumes of Buffer A (10 mM HEPES pH 7.9, 1.5 mM MgCl2, 10 mM KCl, 0.5 mM DTT, and 0.2 mM PMSF) and centrifuged at 1500 rpm for 5 minutes. Buffer A was added up to a final of 3 original packed cell volumes and the suspension was incubated on ice for 10 minutes. Cells were transferred to a Wheaton A Dounce homogenizer and lysed with 10 strokes. Nuclei were pelleted by centrifuging at maximum speed for 5 min in a microcentrifuge. Nuclei were resuspended in Buffer B (20 mM HEPES, pH 7.9, 100 mM KCl, 0.5 mM DTT and 0.2 mM PMSF) and disrupted by sonication. After preclearing with 20 μl protein A-agarose beads, the supernatant was incubated with either myc- or hemagglutinin-specific monoclonal antibody (5 μg/sample) and 20 μl protein A-agarose beads overnight at 4° C., the sample was washed three times with 1 ml Buffer B and the purified immune complex was incubated overnight at 4° C. with myc or HA peptide to release Ndy1/KDM2B from the beads. Demethylation reactions were carried out in 10 mM HEPES pH 7.9, 50 mM NaCl, 1 mM α-ketoglutarate, 2 mM ascorbate, 30-70 μM Fe(NH4)2(SO4)2, 0.25 mg/ml BSA and contained 6 μg of bulk histone per 90 μl reaction. Reactions were incubated at 37° C. for 1-3 hours and analyzed by 18% SDS-PAGE and Western-blotting with histone specific antibodies.\n(§2) Fluorescent assays were carried out as previously described (Couture, J. F., et al. (2007) Nat Struct Mol Biol 14, 689-95) under the reaction conditions above. One unit of enzyme activity is determined as amount of Ndy1 that produces 1 μmol of formaldehyde per min, incubated with 340 μM peptide substrate at 37° C. under the above conditions. The sequences of the H3K4(me3) and H3K36(me2) peptides used in the biochemical studies were: ART-K(me3)-QTARKST (SEQ ID NO: 79) and ATGGV-K(me2)-KPHRY (SEQ ID NO: 80) respectively and were synthesized at Tufts University Core facility.\n(§3) Using a fluorescence coupled demethylation assay, a bacterially expressed mouse Ndy1 fragment containing the JmjC, CXXC and PHD domains (aa 171-707) was here shown to demethylate both H3K36me2 and H3K4me3 peptides, with high and low efficiencies respectively (FIG. 20 panel B and FIG. 22). Cloning and bacterial expression of Ndy1 fragments was accomplished using fragments 1-701 and 171-701 of mouse Ndy1, which were amplified using specific primers and were cloned directly into pET102/DTOPO vector (Invitrogen) using of the TOPO-cloning methodology. The C-terminally His-tagged fusion proteins were purified from BL21(DE3) cells using Ni2+agarose beads (QIAGEN) and according to the manufacturer instructions. Flow cytometry analysis of histone modifications was determined in HEK293 cells transfected with either pIRES-GFP-empty vector (Stratagene) or the same vector containing the wild type or the H283Y JmjC domain point mutant of Ndy1. After 48 hours, cells were harvested and fixed in 1% paraformaldehyde for 10 min. Cells were washed twice with PBS, and were permeabilized with 0.5% saponin in PBS for 20 min and were blocked with 3% bovine serum albumin (BSA). […] (Alexa Fluor 635, Invitrogen, #A31577) followed by fluorescence-activated cell sorting using a CyAn high performance flow cytometer (Dako Cytomation)."}, "MEFs": {"system": "MEFs", "assay": "Ndy1 overexpression in serially passaged MEFs, real time PCR of p16Ink4a and p19Arf mRNA", "assay_type": "cell-based, mouse", "method": "FIG. 14 panel B is a set of bar graphs of MEFs overexpressing Ndy1 that were plated at a concentration of 10^5 cells per 6 cm dish and serially passaged. In passage P5, P10, and P15 total mRNA was isolated and analyzed by real time PCR for the relative mRNA levels of p16^Ink4a and p19^Arf. The graphs show the fold decrease of p16^Ink4a and p19^Arf mRNAs in MEFs that overexpress Ndy1 normalized to control empty-vector transduced cells from 3 independent infections.\nRNA was isolated with the RNeasy mini kit (Qiagen #74104). cDNAs of these mRNAs were synthesized with RETROscript (Ambion #AM1710). PCR reactions were carried out in triplicate with iQ SYBRGreen Supermix (Bio-Rad #170-8882) in an Opticon2 continuous fluorescence detector (MJ Research). The following set of primers have been used to amplify the mouse: Ezh2: F-5′-ACTGCTGG CACCGTCTGATG-′3 (SEQ ID NO: 38) and R-5′-TCCTGAGAA ATAATCTCCCCACAG-′3 (SEQ ID NO: 39),\np16^Ink4a: F-5′-GTGTGCATGA CGTGCGGG-′3 (SEQ ID NO: 42) and R-5′-GCAGTTCGA ATCTGCACCGTAG-′3 (SEQ ID NO: 43), p19^Arf: F-5′GCTCTGGCT TTCGTGAACATG-′3 (SEQ ID NO: 44) and R-5′-TCGAATCTG CACCGTAG′TTGAG'3 (SEQ ID NO: 45),\nReplicative senescence is characterized by the dramatic upregulation of p16^Ink4a (>100-fold, FIG. 16) and p19^Arf (>10-fold). Since, p16^Ink4a inhibits the cyclin D/CDK4-6 complex that mediates the phosphorylation of Rb at Ser807/811, and Ndy1 promotes the phosphorylation of Rb at this site as shown in Examples herein, whether the phosphorylation of Rb in Ndy1-transduced MEFs can be linked to a defect in the induction of the Ink4a/Arf locus was tested. To address this question, the relative levels of p16^Ink4a and p19^Arf mRNA in passaged MEFs stably expressing Ndy1 were determined in examples herein."}, "HEK293 cells": {"system": "HEK293 cells", "assay": "Flow cytometry of global histone modifications in HEK293 cells transfected with Ndy1", "assay_type": "cell-based, human", "conditions": "HEK293 cells transiently transfected with Ndy1", "text": "as §3, with “Ndy1.” for “Ndy1. After 48 hours, cells were harvested and fixed in 1% paraformaldehyde for 10 min. Cells were washed twice with PBS, and were permeabilized with 0.5% saponin in PBS for 20 min and were blocked with 3% bovine serum albumin (BSA).”\nTo confirm the activity and specificity of the Ndy1 histone demethylase in vivo, flow cytometry was used to quantitatively assess the global levels of histone H3K36me2 and H3K4me3 in HEK293 cells transiently transfected with Ndy1."}, "bulk histone": {"system": "bulk histone", "assay": "In vitro histone demethylation assay with immunoprecipitated native Ndy1 (Western blot)", "assay_type": "biochemical", "conditions": "mouse and human Ndy1 immunoprecipitated from MEFs and IMR90 cells"}, "H3K4me3 peptide": {"system": "H3K4me3 peptide", "assay": "Fluorescence coupled demethylation assay", "assay_type": "biochemical", "conditions": "bacterially expressed fragment", "method": "as §1, §2, §3"}}}
{"molecule": "Ndy1: JmjC domain-containing histone H3 demethylase, overexpressed from retroviral constructs or immunoprecipitated (protein, UniProt Q6P1G2 1-1309, looked up) Lysine-specific demethylase 2B: MEAEKDSGRRLRAIDRQRYDENEDLSDVEEIVSVRGFSLEEKLRSQLYQGDFVHAMEGKDFNYEYVQREALRVPLVFRDKDGLGIKMPDPDFTVRDVKLLVGSRRLVDVMDVNTQKGTEMSMSQFVRYYETPEAQRDKLYNVISLEFSHTKLEHLVKRPTVVDLVDWVDNMWPQHLKEKQTEATNALAEMKYPKVKKYCLMSVKGCFTDFHIDFGGTSVWYHVFRGGKIFWLIPPTLHNLALYEEWVLSGKQSDIFLGDRVERCQRIELKQGYTFFIPSGWIHAVYTPVDSLVFGGNILHSFNVPMQLRIYEIEDRTRVQPKFRYPFYYEMCWYVLERYVYCVTQRSYLTQEYQRELMLIDAPRKTSVDGFSSDSWLDMEEESCEQQPQEEEEEEEDKEEEGDGADKTPKPPTDDPTSPTSTPPEDQDSTGKKPKAPAIRFLKRTLSNESEESVKSTSMPTDDPKTPTGSPATEVSTKWTHLTEFELKGLKALVEKLESLPENKKCVPEGIEDPQALLEGVKNVLKEHVDDDPTLAITGVPVVSWPKKTAKNRVVGRPKGKLGPASAVKLAANRTTAGARRRRTRCRKCEACLRTECGECHFCKDMKKFGGPGRMKQSCIMRQCIAPVLPHTAVCLVCGEAGKEDTVEEEEGKFNLMLMECSICNEIIHPGCLKIKESEGVVNDELPNCWECPKCNHAGKTGKQKRGPGFKYASNLPGSLLKEQKMNRDNKEGQEPAKRRSECEEAPRRRSDEHPKKVPADGILRRKSDDVHLRRKRKYEKPQELSGRKRASSLQTSPGSSSHLSPRPPLGSSLSPWWRSSLTYFQQQLKPGKEDKLFRKKRRSWKNAEDRLSLANKPLRRFKQEPEDDLPEAPPKTRESDQSRSSSPTAGPSTEGAEGPEEKKKVKMRRKRRLVNKELSKELSKELNHEIQKTESTLAHESQQPIKSEPESENDEPKRPLSHCERPHRFSKGLNGTPRELRHSLGPGLRSPPRVMSRPPPSASPPKCIQMERHVIRPPPISPPPDSLPLDDGAAHVMHREVWMAVFSYLSHRDLCVCMRVCRTWNRWCCDKRLWTRIDLNRCKSITPLMLSGIIRRQPVSLDLSWTNISKKQLSWLINRLPGLRDLVLSGCSWIAVSALCSSSCPLLRTLDVQWVEGLKDAQMRDLLSPPTDNRPGQMDNRSKLRNIVELRLAGLDITDVSLRLIIRHMPLLSKLQLSYCNHINDQSINLLTAVGTTTRDSLTEVNLSDCNKVTDLCLSFFKRCGNICHIDLRYCKQVTKEGCEQFIAEMSVSVQFGQVEEKLLQKLS", "values": [{"measurement": "specific activity towards the H3K36me2 versus the H3K4me3 peptide", "setting": "H3K36me2 peptide; Ndy1 fragments expressed in E. coli", "value": "three times higher"}, {"measurement": "attenuation of induction of p16Ink4a", "setting": "MEFs; passage 5, relative to empty vector transduced MEFs", "value": "about 55%"}, {"measurement": "reduction of induction of p19Arf", "setting": "MEFs; passage 10", "value": "about 43%"}, {"measurement": "attenuation of induction of p16Ink4a", "setting": "MEFs; passage 10, relative to empty vector transduced MEFs", "value": "~62", "unit": "%"}, {"measurement": "reduction of induction of p19Arf", "setting": "MEFs; passage 15", "value": "~34", "unit": "%"}, {"measurement": "attenuation of induction of p16Ink4a", "setting": "MEFs; passage 15, relative to empty vector transduced MEFs", "value": "~90", "unit": "%"}, {"measurement": "histone H3K4me3 demethylase activity in vivo", "setting": "HEK293 cells", "value": "weak"}, {"measurement": "histone H3K36me2 demethylase activity in vivo", "setting": "HEK293 cells", "value": "strong"}, {"measurement": "H3K4me3 demethylase activity", "setting": "bulk histone", "value": "weak"}, {"measurement": "H3K36me2 demethylase activity", "setting": "bulk histone", "value": "strong"}]}
{"molecule": "Ndy1 fragment (aa 171-707): bacterially expressed mouse Ndy1 fragment containing the JmjC, CXXC and PHD domains (protein, UniProt Q6P1G2 171-707, looked up, fragment) MWPQHLKEKQTEATNALAEMKYPKVKKYCLMSVKGCFTDFHIDFGGTSVWYHVFRGGKIFWLIPPTLHNLALYEEWVLSGKQSDIFLGDRVERCQRIELKQGYTFFIPSGWIHAVYTPVDSLVFGGNILHSFNVPMQLRIYEIEDRTRVQPKFRYPFYYEMCWYVLERYVYCVTQRSYLTQEYQRELMLIDAPRKTSVDGFSSDSWLDMEEESCEQQPQEEEEEEEDKEEEGDGADKTPKPPTDDPTSPTSTPPEDQDSTGKKPKAPAIRFLKRTLSNESEESVKSTSMPTDDPKTPTGSPATEVSTKWTHLTEFELKGLKALVEKLESLPENKKCVPEGIEDPQALLEGVKNVLKEHVDDDPTLAITGVPVVSWPKKTAKNRVVGRPKGKLGPASAVKLAANRTTAGARRRRTRCRKCEACLRTECGECHFCKDMKKFGGPGRMKQSCIMRQCIAPVLPHTAVCLVCGEAGKEDTVEEEEGKFNLMLMECSICNEIIHPGCLKIKESEGVVNDELPNCWECPKCNHAGKTGKQKRG", "values": [{"measurement": "efficiency of demethylation of H3K4me3 peptide", "setting": "H3K4me3 peptide", "value": "low"}, {"measurement": "efficiency of demethylation of H3K36me2 peptide", "setting": "H3K36me2 peptide", "value": "high"}]}
{"molecule": "171-707 Ndy1 fragment containing the Y221A mutation: Ndy1 fragment with Y221A mutation, which abolishes the demethylase activity (protein, left off: small tags and cut ends) MWPQHLKEKQTEATNALAEMKYPKVKKYCLMSVKGCFTDFHIDFGGTSVWAHVFRGGKIFWLIPPTLHNLALYEEWVLSGKQSDIFLGDRVERCQRIELKQGYTFFIPSGWIHAVYTPVDSLVFGGNILHSFNVPMQLRIYEIEDRTRVQPKFRYPFYYEMCWYVLERYVYCVTQRSYLTQEYQRELMLIDAPRKTSVDGFSSDSWLDMEEESCEQQPQEEEEEEEDKEEEGDGADKTPKPPTDDPTSPTSTPPEDQDSTGKKPKAPAIRFLKRTLSNESEESVKSTSMPTDDPKTPTGSPATEVSTKWTHLTEFELKGLKALVEKLESLPENKKCVPEGIEDPQALLEGVKNVLKEHVDDDPTLAITGVPVVSWPKKTAKNRVVGRPKGKLGPASAVKLAANRTTAGARRRRTRCRKCEACLRTECGECHFCKDMKKFGGPGRMKQSCIMRQCIAPVLPHTAVCLVCGEAGKEDTVEEEEGKFNLMLMECSICNEIIHPGCLKIKESEGVVNDELPNCWECPKCNHAGKTGKQKRG", "values": [{"measurement": "efficiency of demethylation of H3K4me3 peptide", "setting": "H3K4me3 peptide", "value": "failed to demethylate"}, {"measurement": "efficiency of demethylation of H3K36me2 peptide", "setting": "H3K36me2 peptide", "value": "failed to demethylate"}]}
